Data taken from paper PMC12556795.
pKd: −log10 of the molar value. One block for each substance: values may come before it.

What was measured:
[1] = target: 60S ribosomal subunit (rabbit) (rabbit (endogenous in reticulocyte lysate)) (UniProt P19949)
[2] = target: DCC C-tail ΔP3 protein (residues 1121-1424) (H. sapiens) (UniProt P43146); assay: other fluorescence titration; initial fluorescence read on the MST instrument; Cy5-labelled ΔP3 at 5 nM, 60S subunits titrated from 5 uM to 0.15 nM; 20 mM Tris-HCl pH 7.5, 100 mM KCl, 2 mM Mg(OAc)2, 1 mM DTT, 0.5 mM EDTA, 0.25 M sucrose; 25 °C; 1:1 binding model; KD values called relative
[3] = target: DCC C-tail N29+P1 protein (residues 1121-1167) (H. sapiens) (UniProt P43146); assay: MST; Cy5-labelled DCC protein (target) at 5 nM, purified 60S subunits (ligand) titrated from 5 uM to 0.15 nM over 16 capillaries; 20 mM Tris-HCl pH 7.5, 100 mM KCl, 2 mM Mg(OAc)2, 1 mM DTT, 0.5 mM EDTA, 0.25 M sucrose; 25 °C; 1:1 binding model; KD values called relative, not absolute (limited by 60S solubility)
[4] = target: DCC C-tail ΔN29+P1 protein (residues 1168-1447) (H. sapiens) (UniProt P43146); assay: as above
[5] = target: 60S ribosomal subunit (rabbit) (rabbit (endogenous in reticulocyte lysate)) (UniProt P19949); remark: listed apart in the source

DCC C-tail N29+P1 protein (residues 1121-1167), sequence (P43146 1121-1167): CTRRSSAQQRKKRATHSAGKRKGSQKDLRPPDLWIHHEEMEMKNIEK
DCC C-tail N29+P1 protein (residues 1121-1167) (H. sapiens), sequence (P43146 1121-1167): as above
DCC C-tail ΔP3 protein (residues 1121-1424), sequence (P43146 1121-1424, stated change not applied): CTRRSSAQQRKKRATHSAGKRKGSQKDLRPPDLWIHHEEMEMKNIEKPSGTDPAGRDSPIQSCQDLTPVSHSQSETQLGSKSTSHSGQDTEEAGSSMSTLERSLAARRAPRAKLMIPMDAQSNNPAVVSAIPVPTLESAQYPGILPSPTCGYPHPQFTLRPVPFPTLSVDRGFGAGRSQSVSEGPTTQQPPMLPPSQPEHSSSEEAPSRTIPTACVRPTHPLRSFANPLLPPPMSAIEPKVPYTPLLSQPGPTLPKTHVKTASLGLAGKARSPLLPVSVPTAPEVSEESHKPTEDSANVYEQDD
DCC C-tail ΔP3 protein (residues 1121-1424) (H. sapiens), sequence (P43146 1121-1424, stated change not applied): as above
DCC C-tail ΔN29+P1 protein (residues 1168-1447) (H. sapiens), sequence (P43146 1168-1447, stated change not applied): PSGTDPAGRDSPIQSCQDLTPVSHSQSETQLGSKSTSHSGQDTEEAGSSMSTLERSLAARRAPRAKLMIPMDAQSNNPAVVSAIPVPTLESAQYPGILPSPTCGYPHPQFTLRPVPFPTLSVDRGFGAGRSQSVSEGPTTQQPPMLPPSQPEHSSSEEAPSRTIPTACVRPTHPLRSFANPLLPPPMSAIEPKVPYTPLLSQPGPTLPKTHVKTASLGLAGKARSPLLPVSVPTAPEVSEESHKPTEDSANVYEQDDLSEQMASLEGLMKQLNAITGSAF

decrease of in vitro translation of a luciferase reporter mRNA in rabbit reticulocyte lysate by the DCC protein (3 and 6 μM) (% decrease of translation) [1]: 90
Substance: DCC C-tail N29+P1 protein (residues 1121-1167) (from UniProt P43146 1121-1167) (domain or fragment)

decrease of in vitro translation of a luciferase reporter mRNA in rabbit reticulocyte lysate by the DCC protein (3 and 6 μM) (% decrease of translation) [1]: 20
Substance: DCC C-tail N29+P1 KRK→AAA protein (residues 1121-1167, alanines at 1140 to 1142) (from UniProt P43146 1121-1167) (domain or fragment)

pKd [2]: 7.16
pKd [3]: 7.10
pKd [4]: 6.55
Substance: 60S ribosomal subunit (rabbit) (from UniProt P19949 1-297) (complex)

inhibition of in vitro translation of a luciferase reporter mRNA in rabbit reticulocyte lysate by 3 μM DCC protein (% inhibition of translation) [5]: 92
Substance: DCC C-tail ΔP3 protein (residues 1121-1424) (from UniProt P43146 1121-1424) (domain or fragment)
